The values that follow come from publication PMC12002136.

The target in the assay is exportin 1 (XPO1, CRM1) (UniProt O14980). As to the kind of experiment: anti-HA. To be noted: reference: wild type; sites S182.

With YTHDF1 (from UniProt Q9BYJ9) S182A, the “binding against the reference” value is “stronger”.
